What was measured:
[1] = molecular target: T1, human platelet glycoprotein Ib alpha (GPIb α) on human platelets (human, UniProt P07359 17-652); test: human whole blood over immobilized protein, parallel-plate flow chamber, 1600 s^-1
T1 construct: whole, on cells; Native receptor on washed platelets or whole blood; also called GPIb alpha; hGPIb-α
Method: (§1) Ex vivo platelet adhesion studies. Experiments were performed in a parallel-plate flow chamber as previously described (Offermanns, S., et al., 2006). […] Subsequently, the plate was washed and non-specific interactions blocked by the addition of TBS containing 3% BSA, pH 7.4 (1 hour, 37° C.). Human or murine plasma obtained from heparinized whole blood was added and the plates placed at 37° C. for an additional 2 hours. […] The number of platelets attached per unit area (0.07 mm²) and translocation velocities were determined by off-line analysis (Image-Pro Plus, Media Cybernetics). For GPIb α inhibition studies, the function-blocking mAb 6D1 (20 μg/ml) or mAb SZ2 (20 μg/ml; Beckman Coulter, Brea, Calif.) was added to anticoagulated human blood for 30 minutes prior to use. Experiments were performed in triplicate on two separate days. An ELISA was used to ensure equivalent coating concentration of plasma and recombinant proteins (Denis, C. et al., 1998).

[2] = molecular target: T2, murine platelet glycoprotein Ib alpha (GPIb α) on mouse platelets (mouse, UniProt O35930 17-734); test: mouse whole blood perfused 4 min over surface-immobilized recombinant VWF-A1, 1600 s-1
T2 construct: whole, on cells; Native receptor on mouse platelets or whole blood; also called murine GPIb α; mGPIb-α
T2 sequence (looked up): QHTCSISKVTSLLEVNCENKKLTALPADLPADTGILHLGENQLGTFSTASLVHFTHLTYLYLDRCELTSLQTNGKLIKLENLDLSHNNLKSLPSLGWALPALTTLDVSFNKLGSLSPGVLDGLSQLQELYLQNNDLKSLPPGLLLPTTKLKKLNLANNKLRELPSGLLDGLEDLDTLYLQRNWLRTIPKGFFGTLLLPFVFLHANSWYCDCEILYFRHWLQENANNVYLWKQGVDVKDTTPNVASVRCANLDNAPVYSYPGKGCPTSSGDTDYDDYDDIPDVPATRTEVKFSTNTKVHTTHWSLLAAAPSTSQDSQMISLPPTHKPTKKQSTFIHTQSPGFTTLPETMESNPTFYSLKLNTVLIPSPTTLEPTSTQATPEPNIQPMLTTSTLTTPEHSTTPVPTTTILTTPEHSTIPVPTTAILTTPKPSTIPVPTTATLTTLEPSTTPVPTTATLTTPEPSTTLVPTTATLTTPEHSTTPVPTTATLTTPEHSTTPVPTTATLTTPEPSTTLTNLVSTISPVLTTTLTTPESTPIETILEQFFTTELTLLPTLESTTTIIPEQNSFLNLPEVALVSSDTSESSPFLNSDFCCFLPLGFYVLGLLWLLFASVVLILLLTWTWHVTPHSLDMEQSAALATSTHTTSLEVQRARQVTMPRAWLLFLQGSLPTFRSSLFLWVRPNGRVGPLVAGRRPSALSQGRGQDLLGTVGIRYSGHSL
Method: as §1

B1: recombinant wild-type murine VWF-A1 domain protein (amino acid residues 1238 to 1471), Example 3 (ligand)
chain: QEPGGLVAPPTDAPVSSTTPYVEDTPEPPLHNFYCSKLLDLVFLLDGSSMLSEAEFEVLKAFVVGMMERLHISQKRIRVAVVEYHDGSRAYLELKARKRPSELRRITSQIKYTGSQVASTSEVLKYTLFQIFGKIDRPEASHITLLLTASQEPPRMARNLVRYVQGLKKKKVIVIPVGIGPHASLKQIRLIEKQAPENKAFLLSGVDELEQRRDEIVSYLCDLAPEAPAPTQPP
notes: Generated in bacteria, with a single disulfide 1272-1458; also called murine rVWF-A1; WT murine VWF-A1 domain protein
- platelet deposition relative to same-species control [1]: 25%
- binding result [2]: binds

— patent US20130347134A1 (published 2013)
